Test results taken from the supplement of paper PMC5998384.

Assays:
HeLa Kyoto [1] = assay: solubility in G1/S (NP-40 vs SDS abundance) (log2 ratio); higher = more soluble; details: cell cycle stage: G1/S
HeLa Kyoto [2] = assay: solubility change mitosis vs G1/S (difference of NP-40 vs SDS log2 ratios) (log2 ratio difference); higher = more soluble in mitosis
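Wherever solubility change mitosis vs G1/S (difference of NP-40 vs SDS log2 ratios) is given: synchronized HeLa Kyoto cells (double thymidine block for G1/S, nocodazole release for mitosis), protein amounts in NP-40 versus SDS lysates quantified by mass spectrometry, three biological replicates.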
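Wherever solubility in G1/S (NP-40 vs SDS abundance) is given: HeLa Kyoto cells arrested at G1/S by double thymidine block, proteins quantified by TMT10plex mass spectrometry in mild NP-40 versus SDS extracts, three biological replicates.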

Substance | solubility in G1/S (log2) (HeLa Kyoto [1]) | solubility change mitosis (log2) (HeLa Kyoto [2])
MDSLDHMLTDPLELGPCGDGHGTRIMEDCLLGGTRVSLPEDLLEDPEIFFDVVSLSTWQEVLSDSQREHLQQFLPQFPEDSAEQQNELILALFSGENFRFGNPLHIAQKLFRDGHFNPEVVKYRQLCFKSQYKRYLNSQQQYFHRLLKQILASRSDLLEMARRSGPALPFRQKRPSPSRTPEEREWRTQQRYLKVLREVKEECGDTALSSDEEDLSSWLPSSPARSPSPAVPLRVVPTLSTTDMKTADKVELGDSDLKIMLKKHHEKRKHQPDHPDLLTGDLTLNDIMTRVNAGRKGSLAALYDLAVLKKKVKEKEEKKKKKIKTIKSEAEDLAEPLSSTEGVAPLSQAPSPLAIPAIKEEPLEDLKPCLGINEISSSFFSLLLEILLLESQASLPMLEERVLDWQSSPASSLNSWFSAAPNWAELVLPALQYLAGESRAVPSSFSPFVEFKEKTQQWKLLGQSQDNEKELAALFQLWLETKDQAFCKQENEDSSDATTPVPRVRTDYVVRPSTGEEKRVFQEQERYRYSQPHKAFTFRMHGFESVVGPVKGVFDKETSLNKAREHSLLRSDRPAYVTILSLVRDAAARLPNGEGTRAEICELLKDSQFLAPDVTSTQVNTVVSGALDRLHYEKDPCVKYDIGRKLWIYLHRDRSEEEFERIHQAQAAAAKARKALQQKPKPPSKVKSSSKESSIKVLSSGPSEQSQMSLSDSSMPPTPVTPVTPTTPALPAIPISPPPVSAVNKSGPSTVSEPAKSSSGVLLVSSPTMPHLGTMLSPASSQTAPSSQAAARVVSHSGSAGLSQVRVVAQPSLPAVPQQSGGPAQTLPQMPAGPQIRVPATATQTKVVPQTVMATVPVKAQTTAATVQRPGPGQTGLTVTSLPATASPVSKPATSSPGTSAPSASTAAVIQNVTGQNIIKQVAITGQLGVKPQTGNSIPLTATNFRIQGKDVLRLPPSSITTDAKGQTVLRITPDMMATLAKSQVTTVKLTQDLFGTGGNTTGKGISATLHVTSNPVHAADSPAKASSASAPSSTPTGTTVVKVTPDLKPTEASSSAFRLMPALGVSVADQKGKSTVASSEAKPAATIRIVQGLGVMPPKAGQTITVATHAKQGASVASGSGTVHTSAVSLPSMNAAVSKTVAVASGAASTPISISTGAPTVRQVPVSTTVVSTSQAGKLPTRITVPLSVISQPMKGKSVVTAPIIKGNLGANLSGLGRNIILTTMPAGTKLIAGNKPVSFLTAQQLQQLQQQGQATQVRIQTVPASHLQQGTASGSSKAVSTVVVTTAPSPKQAPEQQ [NFRKB] | -0.0172 | 0.184
MMDSPFLELWQSKAVSIREQLGLGDRPNDSYCYNSAKNSTVLQGVTFGGIPTVLLIDVSCFLFLILVFSIIRRRFWDYGRIALVSEADSESRFQRLSSTSSSGQQDFENELGCCPWLTAIFRLHDDQILEWCGEDAIHYLSFQRHIIFLLVVVSFLSLCVILPVNLSGDLLDKDPYSFGRTTIANLQTDNDLLWLHTIFAVIYLFLTVGFMRHHTQSIKYKEENLVRRTLFITGLPRDARKETVESHFRDAYPTCEVVDVQLCYNVAKLIYLCKEKKKTEKSLTYYTNLQVKTGQRTLINPKPCGQFCCCEVLGCEWEDAISYYTRMKDRLLERITEEERHVQDQPLGMAFVTFQEKSMATYILKDFNACKCQSLQCKGEPQPSSHSRELYTSKWTVTFAADPEDICWKNLSIQGLRWWLQWLGINFTLFLGLFFLTTPSIILSTMDKFNVTKPIHALNNPIISQFFPTLLLWSFSALLPSIVYYSTLLESHWTKSGENQIMMTKVYIFLIFMVLILPSLGLTSLDFFFRWLFDKTSSEASIRLECVFLPDQGAFFVNYVIASAFIGNGMELLRLPGLILYTFRMIMAKTAADRRNVKQNQAFQYEFGAMYAWMLCVFTVIVAYSITCPIIAPFGLIYILLKHMVDRHNLYFVYLPAKLEKGIHFAAVNQALAAPILCLFWLYFFSFLRLGMKAPATLFTFLVLLLTILVCLAHTCFGCFKHLSPLNYKTEEPASDKGSEAEAHMPPPFTPYVPRILNGLASERTALSPQQQQQQTYGAIHNISGTIPGQCLAQSATGSVAAAPQEA [TMEM63A] | -0.142 | 0.0055
MSSIKHLVYAVIRFLREQSQMDTYTSDEQESLEVAIQCLETVFKISPEDTHLAVSQPLTEMFTSSFCKNDVLPLSNSVPEDVGKADQLKDEGNNHMKEENYAAAVDCYTQAIELDPNNAVYYCNRAAAQSKLGHYTDAIKDCEKAIAIDSKYSKAYGRMGLALTALNKFEEAVTSYQKALDLDPENDSYKSNLKIAEQKLREVSSPTGTGLSFDMASLINNPAFISMAASLMQNPQVQQLMSGMMTNAIGGPAAGVGGLTDLSSLIQAGQQFAQQIQQQNPELIEQLRNHIRSRSFSSSAEEHS [SGTB] | 0.092 | 0.321
MGSQHSAAARPSSCRRKQEDDRDGLLAEREQEEAIAQFPYVEFTGRDSITCLTCQGTGYIPTEQVNELVALIPHSDQRLRPQRTKQYVLLSILLCLLASGLVVFFLFPHSVLVDDDGIKVVKVTFNKQDSLVILTIMATLKIRNSNFYTVAVTSLSSQIQYMNTVVSTYVTTNVSLIPPRSEQLVNFTGKAEMGGPFSYVYFFCTVPEILVHNIVIFMRTSVKISYIGLMTQSSLETHHYVDCGGNSTAI [TMEM106C] | 0.121 | -0.29
MAAAVAAPLAAGGEEAAATTSVPGSPGLPGRRSAERALEEAVATGTLNLSNRRLKHFPRGAARSYDLSDITQADLSRNRFPEVPEAACQLVSLEGLSLYHNCLRCLNPALGNLTALTYLNLSRNQLSLLPPYICQLPLRVLIVSNNKLGALPPDIGTLGSLRQLDVSSNELQSLPSELCGLSSLRDLNVRRNQLSTLPEELGDLPLVRLDFSCNRVSRIPVSFCRLRHLQVILLDSNPLQSPPAQVCLKGKLHIFKYLSTEAGQRGSALGDLAPSRPPSFSPCPAEDLFPGHRYDGGLDSGFHSVDSGSKRWSGNESTDEFSELSFRISELAREPRGPRERKEDGSADGDPVQIDFIDSHVPGEDEERGTVEEQRPPELSPGAGDRERAPSSRREEPAGEERRRPDTLQLWQERERRQQQQSGAWGAPRKDSLLKPGLRAVVGGAAAVSTQAMHNGSPKSSASQAGAAAGQGAPAPAPASQEPLPIAGPATAPAPRPLGSIQRPNSFLFRSSSQSGSGPSSPDSVLRPRRYPQVPDEKDLMTQLRQVLESRLQRPLPEDLAEALASGVILCQLANQLRPRSVPFIHVPSPAVPKLSALKARKNVESFLEACRKMGVPEADLCSPSDLLQGTARGLRTALEAVKRVGGKALPPLWPPSGLGGFVVFYVVLMLLLYVTYTRLLGS [LRCH4] | 0.302 | -0.305
MNRVLCAPAAGAVRALRLIGWASRSLHPLPGSRDRAHPAAEEEDDPDRPIEFSSSKANPHRWSVGHTMGKGHQRPWWKVLPLSCFLVALIIWCYLREESEADQWLRQVWGEVPEPSDRSEEPETPAAYRART [CCSMST1] | -0.299 | 0.566
MSRRPCSCALRPPRCSCSASPSAVTAAGRPRPSDSCKEESSTLSVKMKCDFNCNHVHSGLKLVKPDDIGRLVSYTPAYLEGSCKDCIKDYERLSCIGSPIVSPRIVQLETESKRLHNKENQHVQQTLNSTNEIEALETSRLYEDSGYSSFSLQSGLSEHEEGSLLEENFGDSLQSCLLQIQSPDQYPNKNLLPVLHFEKVVCSTLKKNAKRNPKVDREMLKEIIARGNFRLQNIIGRKMGLECVDILSELFRRGLRHVLATILAQLSDMDLINVSKVSTTWKKILEDDKGAFQLYSKAIQRVTENNNKFSPHASTREYVMFRTPLASVQKSAAQTSLKKDAQTKLSNQGDQKGSTYSRHNEFSEVAKTLKKNESLKACIRCNSPAKYDCYLQRATCKREGCGFDYCTKCLCNYHTTKDCSDGKLLKASCKIGPLPGTKKSKKNLRRL [FBXO5] | 0.273 | 0.249
NUFIP1 | -0.519 | 0.162
MVHAFLIHTLRAPNTEDTGLCRVLYSCVFGAEKSPDDPRPHGAERDRLLRKEQILAVARQVESMCRLQQQASGRPPMDLQPQSSDEQVPLHEAPRGAFRLAAENPFQEPRTVVWLGVLSLGFALVLDAHENLLLAEGTLRLLTRLLLDHLRLLAPSTSLLLRADRIEGILTRFLPHGQLLFLNDQFVQGLEKEFSAAWPR [AP5S1] | -0.269 | -0.153
MRLFLWNAVLTLFVTSLIGALIPEPEVKIEVLQKPFICHRKTKGGDLMLVHYEGYLEKDGSLFHSTHKHNNGQPIWFTLGILEALKGWDQGLKGMCVGEKRKLIIPPALGYGKEGKGKIPPESTLIFNIDLLEIRNGPRSHESFQEMDLNDDWKLSKDEVKAYLKKEFEKHGAVVNESHHDALVEDIFDKEDEDKDGFISAREFTYKHDEL [FKBP14] | 0.295 | -0.053
